# Data as given in the nanobody polyreactivity screen of Harvey et al. (2022).
# Experiment: yeast display, Sf9 membrane polyspecificity reagent, FACS + sequencing; frameworks hold sequencing errors
# In short: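 After 36–48 hours of galactose induction, yeast (Saccharomyces cerevisiae BJ5465) displaying a synthetic nanobody library were stained at 4 °C for 1 hour with 10% biotinylated, detergent-solubilized Sf9 membrane reagent. Streptavidin microbeads enriched the stained cells before FACS sorting into low and high (top ~1%) gates on anti-HA and streptavidin fluorescence. Each clone's polyreactivity label reflects its gate of origin.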
row,Sequence,polyreactivity (PSR sort gate)
1,QVQLVESGGGLVQAGGSLRLSCAASGRTFRKYAMGWYRQAPGKERELVAALSWYGGSTYYANSVKGRFTISRDNAKNTVYLQMNSLKPEDTAVYYCAAVPVHTGSLYWGFTTCYDYWGQGTQVTVSS,low polyreactivity
2,QVQLVESGGGLVQAGGSLRLSCAASGRTFRKYAMGWYRQATGKERELVAAISWSGGSTYYANSVKGRFTISGDNAKNTVYLQINSLNPEDTAVYFCAVDCHPEEYDYWGQGTQVTVSS,low polyreactivity
3,QVQLVESGGGLVQAGGSLRLSCAASGRTFRLNAMGWYRQAPGKERELVAAINTGGGTYYADSVKGRFTISRDNAKNSVYLQMNSLKPEDTAVYYCNACTRYGSFSYVKYDWGQGTQVTVSS,high polyreactivity
4,QVQLVESGGGLVQAGGSLRLSCAASGRTFRLNAMGWYRQAPGKERELVAAITASGGRTYYADSVKGRFTISRDNAKNTVYLQMNSLKPEDTAVYYCNTLSRTDASRFDYWGQGTQVTVSS,high polyreactivity
5,QVQLVESGGGLVQAGGSLRLSCAASGRTFRLNAMGWYRQAPGKERELVAAITLGGGRTYYADSVKGRFTISRDNAKNTVYLQMNSLKPEDTAVYYCNKVKRSYYYVDTDYWGQGTQVTVSS,high polyreactivity
6,QVQLVESGGGLVQAGGSLRLSCAASGRTFRLNGMGWYRQAPGKDRELVAAITWSGGRTYYADSVKGRFTISRDNAKNTVYLQKNSLKPEDTAVYYCAAGKSSYGIPKYYYWGQGTQVTVSS,high polyreactivity
7,QVQLVESGGGLVQAGGSLRLSCAASGRTFRLYAMGWYRQAPGKERELVAAISRRGGSTYYADSVKGRFTISRDNAKNTVYLQMNSLKPEDTAVYYCAKGLGSGQEIYGYDYWGQGTQVTVSS,high polyreactivity
8,QVQLVESGGGLVQAGGSLRLSCAASGRTFRPNVMGWYRQAPGKERELVAAISNGGRTYYADSVKGRFTISRDNAKNTVYLQMNSLKPEDTAVYYCNKVRSPWYDSWGQGTQVTVSS,high polyreactivity
9,QVQLVESGGGLVQAGGSLRLSCAASGRTFRPYAMGLYRQEPGKERELVAAITSGGSTYYADSVKGRLTFSRDNAKYTVYLQMNSLKTEDTAVYYCNAKYYYQPPYDYWVQGTQVTVSS,low polyreactivity
10,QVQLVESGGGLVQAGGSLRLSCAASGRTFRPYAMGWYRQAPGKERELVAAITTTGRTYYADSVKGRFTISRDNAKNTVYLQMNSLKPEDTAVYDCNAVAYPSPHYWRYYYWGQGTQVTVSS,high polyreactivity
11,QVQLVESGGGLVQAGGSLRLSCAASGRTFRQYALGWYRQAPGKEWELVATISGGGGNTYYADSVKGRFTISRDNAKKTVYLQMNSLKPEDTAFYYCAARRRDRPVRGYDYWGQGTQVTVSS,high polyreactivity
12,QVQLVESGGGLVQAGGSLRLSCAASGRTFRQYAMGWSRQAPGKERELVAGITASGGSTSYADSVKGRFTISRDNAKNTVYLQMNSLKPEDTAVYYCAKLSYLYRYDYWGQGTQVTVSS,high polyreactivity
13,QVQLVESGGGLVQAGGSLRLSCAASGRTFRQYAMGWYRQAPGQETELVAAITWDGGSTYYADSVKGRFTISRDNAKNPVYLQMNSLKPEDTAVYYCAKLLGGTYYEYDYWGQGTQVTVSS,low polyreactivity
14,QVQLVESGGGLVQAGGSLRLSCAASGRTFRRNAMGWYRQAPGKERELVAAINSGGSTYYADSVKGRFTISRDNAKNTDYLQMNSLKPEDTAVYYCAASGSKYVQSYSRYDYWGQGTQVTVSS,high polyreactivity
15,QVQLVESGGGLVQAGGSLRLSCAASGRTFRRNAMGWYRQAPGKERELVAAISWRGVSTYYADSVKGRFTISRDNAKNTVYLQMNSLKPEDNALYYCAVDFPYTRRDYWGQGPQVTVSS,high polyreactivity
16,QVQLVESGGGLVQAGGSLRLSCAASGRTFRRNAMGWYRQAPGKEWELVAAISKSGGRTYYADSVKGRFTISRDNAKNTVYLQMNSLKPEDTAVYYCAARGYGYIPDNGDYDYWGQGTQVTVSS,high polyreactivity
17,QVQLVESGGGLVQAGGSLRLSCAASGRTFRRNTMGWYRQAPGKERELVAAISNRGTSTYYADSVKGRFTFSRDNAKNTVYLQMNSLKPEDTAVYYCAAREKYISYSYYYWGQGTQVTVSS,high polyreactivity
18,QVQLVESGGGLVQAGGSLRLSCAASGRTFRRNTMGWYRQATGKERAFVAAITFSGVRTYYADSVKGRFTISRDNAKNTVYLQMNSLKPEDTAVYYCANSRQYIGGFDYWGQGTQVTVSS,high polyreactivity
19,QVQLVESGGGLVQAGGSLRLSCAASGRTFRRYAMGWYRQAPGKEREFVAAIRYSGGITYYADSVKGRFTISRDNAKNTVYLQMNSLKPEDTAVFYCAAYGWGNRWYSRFDYWGQGTQVTVSS,high polyreactivity
20,QVQLVESGGGLVQAGGSLRLSCAASGRTFRRYAMGWYRQAPGKERELVAAISKSGGRTYYADSVKGRFTISRDNAKNTVYLQMNSLKPEDTAVYYCAADHIQTAGGDYWGQGTQVTVSS,high polyreactivity
21,QVQLVESGGGLVQAGGSLRLSCAASGRTFRRYAMGWYRQAPGKEREWVAAISRTGSTNNYADSVKGRFTISRDNAKKTVYLQLNSLKPEDTAVYDCNGQLILGYGYDYWGQGTQVTVSS,high polyreactivity
22,QVQLVESGGGLVQAGGSLRLSCAASGRTFRRYTMGWYRQAPGKEREFVAGITSSAGNTHYADSVKGRFTISRYNAKNTVYLQMNSLKPEDTAVYYCNAVYYHGSSQYYGGTYGRYYWGQGTQVTVSS,high polyreactivity

row,Sequence,polyreactivity (PSR sort gate)
1,QVQLVESGGGLVQAGGSLRLSCAASGRTFRRYTMGWYRQAPGKERELVAAITSGGRTNYADSVKGRFTISRDNAKNTVYLQMNSLKPEDTAVYYCNAQNEIWRVTFSPFDRWGYDYWGQGTQVTVSS,low polyreactivity
2,QVQLVESGGGLVQAGGSLRLSCAASGRTFRRYTMGWYRQAPGKERELVATISSGGSTYADSVKGRFTISRDNAKNTVYLQMNSLKPEDTAVYYCAATAIYPSAWRMDYWGQGTQVTVSS,high polyreactivity
3,QVQLVESGGGLVQAGGSLRLSCAASGRTFRSDNALGWYRQPPGKERELVAAISQGGGTYYADSVKGRFTISRDNAKKTVYLQMNSLKPEDTAVYYCARDAYYADPSLWYYTYDYWGQGTQVTVSS,low polyreactivity
4,QVQLVESGGGLVQAGGSLRLSCAASGRTFRSNAMGWYRQAPGKERELVAAIRNSDGSTNYADSVKGRFTISRDNAKNTVYLQMNSLKPEDTAVYYCAASSTVGRITRILYYYWGQGTQVTVSS,high polyreactivity
5,QVQLVESGGGLVQAGGSLRLSCAASGRTFRSNGMGWYRQAPGKERQLVATISEGGGSTYYADSVKGRFTISRDNAKNTVYLQMNSLKPEDTAVYYCAATVYPSVYGENHYGYWGQGTQVTVSS,high polyreactivity
6,QVQLVESGGGLVQAGGSLRLSCAASGRTFRSNVMGWYRPAPGNERELVASITWSGGTTYYADSVKGRFTISRDNAKNTVYLQMNSLKPEDTAVYYCNAADERSQGWVGYDNWGQCTQVTVSS,low polyreactivity
7,QVQLVESGGGLVQAGGSLRLSCAASGRTFRSYAMGWYRQAPGKERELVAAIRRGGSTNYADSVKGRFTISRDNAKNTVYLQMNSLKPEDTAVYYCNARQTVRGPTDGRIAVWFDYWGQGTQVTVSS,high polyreactivity
8,QVQLVESGGGLVQAGGSLRLSCAASGRTFRSYAMGWYRQAPGKERELVAAISRRGGTTYYADSVKGRFTISRDNAKNTVYLQMNSLKPEDTAVYYCAATSYTYVLSPYRGDYWGQGTQVTVSS,high polyreactivity
9,QVQLVESGGGLVQAGGSLRLSCAASGRTFRSYAMGWYRQAPGKERELVASITSSGRTNYADSVKGRFTISRDNAKNTVYLQMNSLKPEDTAVYYCAAVRYYDYLSSWRYDYWGQGTQVTVSS,low polyreactivity
10,QVQLVESGGGLVQAGGSLRLSCAASGRTFRSYTMGWYRQAPGKERELVAAIRTSSGSTYYADSVKGRFTISRDNAKNTVYLQMNSLKPEDTAVYYCAKTLLYPWFRTVAVDYWGQGTQVTVSS,low polyreactivity
11,QVQLVESGGGLVQAGGSLRLSCAASGRTFRTYTMGWYRPAPGKERELVAAISKRGSSTYYADSVKGRFTISRDNAKNTVYLQMNSLKQEDTAVYYCAARSWLSNSPYGYWGQGTQVTVSS,high polyreactivity
12,QVQLVESGGGLVQAGGSLRLSCAASGRTFRTYTMGWYRQAHGKERELVAAITSTGSTYYADSVKGRFTISRDNAMNTVYLQMNSLKPEDTAVYYCNVGRRLRPYRCTRPNLEYYYWGQGTQVTVSS,high polyreactivity
13,QVQLVESGGGLVQAGGSLRLSCAASGRTFRTYTMGWYRQAPGKEREFGAAITSSGASTYYADSVKGRFTISRDNAKNTVYLPMNSLKPEETAVYYCAARYGRRLVWVPALLYDYWGQGTQVTVSS,high polyreactivity
14,QVQLVESGGGLVQAGGSLRLSCAASGRTFRVNSMGWYRPAPGKDRELVATIRWTGGSTYYADSVKGRFTISRDNAKNTVYLQMNSLKPEDTAVYYCAARIAVYHRGIGGYWGQGTQVTVSS,high polyreactivity
15,QVQLVESGGGLVQAGGSLRLSCAASGRTFRVYAMGWYRQAPGKERELVAAIRRSGGSTYYADSVKGRFTISRDNAKNTVYLQMNSLKPEDTAVYYCAAYFYYWGSTFVRYEYWGLGTQVTVSS,high polyreactivity
16,QVQLVESGGGLVQAGGSLRLSCAASGRTFRVYAMGWYRQAPGKERELVAAISGRGGSTYYADSVKGRFSISRDNAKNTVYFQMNSLKPEVTAVYYCAKSNPYLRLCEGNYWGQGTQVTVSS,high polyreactivity
17,QVQLVESGGGLVQAGGSLRLSCAASGRTFRVYARGWYRQAPGKERELVATITSSGGSTYYADSVKGRFTISRDNAKNTVYLQMNSLKPEDTAVYYCNVSVYYNYDSSYYYWGQGTQVTVSS,low polyreactivity
18,QVQLVESGGGLVQAGGSLRLSCAASGRTFRWNAMGWSRQAPGKERELVASISSGGRTNYADSVKGRFTLSRDNAKNTVYLQMNSLKPEDTAVYYCAKRVSWPQLYDYWGQGTQVTVSS,high polyreactivity
19,QVQLVESGGGLVQAGGSLRLSCAASGRTFRWNAMGWYRQAPGKERELVAAISSGGSTYYADSVKGRFTISRDNAKNTVYLQMNSLKPEDTAVYYCAKSSFKYRWSYPVISMDYWGQGTQVTVSS,high polyreactivity
20,QVQLVESGGGLVQAGGSLRLSCAASGRTFRWNAMVWYRQEPGKERELVARITSGGRTSYADSVKGRFTISRDNAKNTVYLQMNSLKPEDTAVYYCAARSIGYHWGYDYWGQGTQVTVSS,high polyreactivity
21,QVQLVESGGGLVQAGGSLRLSCAASGRTFRWYAMGWYRPAPAKERELVAAISSRGGSTYYADSVKGRFTISRDNAKNTVFLQMNSLKPEDTAVYYCAAVDNWLTLSDYDYWGQGTQVTVSS,low polyreactivity
